# Experimental data reported in the RNAGym collection of RNA variant scans (doi:10.1021/acssynbio.7b00057).
# B1: Pistol ribozyme (parent)
# chain: GGGUCGUUGUUCCAUAAUCGCGUGGAUAUGGCACGCAAGUUUCUACCGGGCACCGUAAAUGUCCGACUGGAGCCGUUCGGGCGGCUAUAAACAGACCUCAGGCCCGAAGCGUGGCGGCACCUGCCGCCGGUGGUAAAAAAGAUCGGAAGAGCACACGUCU
# Variants of: B1
# Test: aptazyme ON/OFF ratio, guanine; higher = stronger switching; co-transcriptional cleavage with and without guanine
row,Variant,aptazyme ON/OFF ratio
1,GGGUCGUUAAAUGAUAAUCGCGUGGAUAUGGCACGCAAGUUUCUACCGGGCACCGUAAAUGUCCGACUGGAGCCGUUCGGGCGGCUAUAAACAGACCUCAGGCCCGAAGCGUGGCGGCACCUGCCGCCGGUGGUAAAAAAGAUCGGAAGAGCACACGUCU,1.3
2,GGGUCGUUAAAUAAUAAUCGCGUGGAUAUGGCACGCAAGUUUCUACCGGGCACCGUAAAUGUCCGACUGGAGCCGUUCGGGCGGCUAUAAACAGACCUCAGGCCCGAAGCGUGGCGGCACCUGCCGCCGGUGGUAAAAAAGAUCGGAAGAGCACACGUCU,1.3
3,GGGUCGUUAAAUUAUAAUCGCGUGGAUAUGGCACGCAAGUUUCUACCGGGCACCGUAAAUGUCCGACUGGAGCCGUUCGGGCGGCUAUAAACAGACCUCAGGCCCGAAGCGUGGCGGCACCUGCCGCCGGUGGUAAAAAAGAUCGGAAGAGCACACGUCU,1.57
4,GGGUCGUUAACGAAUAAUCGCGUGGAUAUGGCACGCAAGUUUCUACCGGGCACCGUAAAUGUCCGACUGGAGCCGUUCGGGCGGCUAUAAACAGACCUCAGGCCCGAAGCGUGGCGGCACCUGCCGCCGGUGGUAAAAAAGAUCGGAAGAGCACACGUCU,1.31
5,GGGUCGUUAACGUAUAAUCGCGUGGAUAUGGCACGCAAGUUUCUACCGGGCACCGUAAAUGUCCGACUGGAGCCGUUCGGGCGGCUAUAAACAGACCUCAGGCCCGAAGCGUGGCGGCACCUGCCGCCGGUGGUAAAAAAGAUCGGAAGAGCACACGUCU,1.41
6,GGGUCGUUAACGGAUAAUCGCGUGGAUAUGGCACGCAAGUUUCUACCGGGCACCGUAAAUGUCCGACUGGAGCCGUUCGGGCGGCUAUAAACAGACCUCAGGCCCGAAGCGUGGCGGCACCUGCCGCCGGUGGUAAAAAAGAUCGGAAGAGCACACGUCU,1.27
7,GGGUCGUUAAACAAUAAUCGCGUGGAUAUGGCACGCAAGUUUCUACCGGGCACCGUAAAUGUCCGACUGGAGCCGUUCGGGCGGCUAUAAACAGACCUCAGGCCCGAAGCGUGGCGGCACCUGCCGCCGGUGGUAAAAAAGAUCGGAAGAGCACACGUCU,1.11
8,GGGUCGUUAAACGAUAAUCGCGUGGAUAUGGCACGCAAGUUUCUACCGGGCACCGUAAAUGUCCGACUGGAGCCGUUCGGGCGGCUAUAAACAGACCUCAGGCCCGAAGCGUGGCGGCACCUGCCGCCGGUGGUAAAAAAGAUCGGAAGAGCACACGUCU,1.05
9,GGGUCGUUAAACUAUAAUCGCGUGGAUAUGGCACGCAAGUUUCUACCGGGCACCGUAAAUGUCCGACUGGAGCCGUUCGGGCGGCUAUAAACAGACCUCAGGCCCGAAGCGUGGCGGCACCUGCCGCCGGUGGUAAAAAAGAUCGGAAGAGCACACGUCU,1.46
10,GGGUCGUUAACCCAUAAUCGCGUGGAUAUGGCACGCAAGUUUCUACCGGGCACCGUAAAUGUCCGACUGGAGCCGUUCGGGCGGCUAUAAACAGACCUCAGGCCCGAAGCGUGGCGGCACCUGCCGCCGGUGGUAAAAAAGAUCGGAAGAGCACACGUCU,1.08
11,GGGUCGUUAAACCAUAAUCGCGUGGAUAUGGCACGCAAGUUUCUACCGGGCACCGUAAAUGUCCGACUGGAGCCGUUCGGGCGGCUAUAAACAGACCUCAGGCCCGAAGCGUGGCGGCACCUGCCGCCGGUGGUAAAAAAGAUCGGAAGAGCACACGUCU,2.7
12,GGGUCGUUAAUUUAUAAUCGCGUGGAUAUGGCACGCAAGUUUCUACCGGGCACCGUAAAUGUCCGACUGGAGCCGUUCGGGCGGCUAUAAACAGACCUCAGGCCCGAAGCGUGGCGGCACCUGCCGCCGGUGGUAAAAAAGAUCGGAAGAGCACACGUCU,1.4
13,GGGUCGUUAAAACAUAAUCGCGUGGAUAUGGCACGCAAGUUUCUACCGGGCACCGUAAAUGUCCGACUGGAGCCGUUCGGGCGGCUAUAAACAGACCUCAGGCCCGAAGCGUGGCGGCACCUGCCGCCGGUGGUAAAAAAGAUCGGAAGAGCACACGUCU,1.66
14,GGGUCGUUAAAGCAUAAUCGCGUGGAUAUGGCACGCAAGUUUCUACCGGGCACCGUAAAUGUCCGACUGGAGCCGUUCGGGCGGCUAUAAACAGACCUCAGGCCCGAAGCGUGGCGGCACCUGCCGCCGGUGGUAAAAAAGAUCGGAAGAGCACACGUCU,1.83
15,GGGUCGUUAAAUCAUAAUCGCGUGGAUAUGGCACGCAAGUUUCUACCGGGCACCGUAAAUGUCCGACUGGAGCCGUUCGGGCGGCUAUAAACAGACCUCAGGCCCGAAGCGUGGCGGCACCUGCCGCCGGUGGUAAAAAAGAUCGGAAGAGCACACGUCU,1.68
16,GGGUCGUUAAUCGAUAAUCGCGUGGAUAUGGCACGCAAGUUUCUACCGGGCACCGUAAAUGUCCGACUGGAGCCGUUCGGGCGGCUAUAAACAGACCUCAGGCCCGAAGCGUGGCGGCACCUGCCGCCGGUGGUAAAAAAGAUCGGAAGAGCACACGUCU,1.14
17,GGGUCGUUAAUCAAUAAUCGCGUGGAUAUGGCACGCAAGUUUCUACCGGGCACCGUAAAUGUCCGACUGGAGCCGUUCGGGCGGCUAUAAACAGACCUCAGGCCCGAAGCGUGGCGGCACCUGCCGCCGGUGGUAAAAAAGAUCGGAAGAGCACACGUCU,1.41
18,GGGUCGUUAAUCUAUAAUCGCGUGGAUAUGGCACGCAAGUUUCUACCGGGCACCGUAAAUGUCCGACUGGAGCCGUUCGGGCGGCUAUAAACAGACCUCAGGCCCGAAGCGUGGCGGCACCUGCCGCCGGUGGUAAAAAAGAUCGGAAGAGCACACGUCU,1.5
